Test results as given in IntAct's records for PubMed 17632125.

B1: Ubiquitin carboxyl-terminal hydrolase 3 (Saccharomyces cerevisiae), Q01477 (parent)
chain: MNMQDANKEESYSMYPKTSSPPPPTPTNMQIPIYQAPLQMYGYTQAPYLYPTQIPAYSFNMVNQNQPIYHQSGSPHHLPPQNNINGGSTTNNNNINKKKWHSNGITNNNGSSGNQGANSSGSGMSYNKSHTYHHNYSNNHIPMMASPNSGSNAGMKKQTNSSNGNGSSATSPSYSSYNSSSQYDLYKFDVTKLKNLKENSSNLIQLPLFINTTEAEFAAASVQRYELNMKALNLNSESLENSSVEKSSAHHHTKSHSIPKHNEEVKTETHGEEEDAHDKKPHASKDAHELKKKTEVKKEDAKQDRNEKVIQEPQATVLPVVDKKEPEESVEENTSKTSSPSPSPPAAKSWSAIASDAIKSRQASNKTVSGSMVTKTPISGTTAGVSSTNMAAATIGKSSSPLLSKQPQKKDKKYVPPSTKGIEPLGSIALRMCFDPDFISYVLRNKDVENKIPVHSIIPRGIINRANICFMSSVLQVLLYCKPFIDVINVLSTRNTNSRVGTSSCKLLDACLTMYKQFDKETYEKKFLENADDAEKTTESDAKKSSKSKSFQHCATADAVKPDEFYKTLSTIPKFKDLQWGHQEDAEEFLTHLLDQLHEELISAIDGLTDNEIQNMLQSINDEQLKVFFIRNLSRYGKAEFIKNASPRLKELIEKYGVINDDSTEENGWHEVSGSSKRGKKTKTAAKRTVEIVPSPISKLFGGQFRSVLDIPNNKESQSITLDPFQTIQLDISDAGVNDLETAFKKFSEYELLPFKSSSGNDVEAKKQTFIDKLPQVLLIQFKRFSFINNVNKDNAMTNYNAYNGRIEKIRKKIKYGHELIIPEESMSSITLKNNTSGIDDRRYKLTGVIYHHGVSSDGGHYTADVYHSEHNKWYRIDDVNITELEDDDVLKGGEEASDSRTAYILMYQKRN
partner: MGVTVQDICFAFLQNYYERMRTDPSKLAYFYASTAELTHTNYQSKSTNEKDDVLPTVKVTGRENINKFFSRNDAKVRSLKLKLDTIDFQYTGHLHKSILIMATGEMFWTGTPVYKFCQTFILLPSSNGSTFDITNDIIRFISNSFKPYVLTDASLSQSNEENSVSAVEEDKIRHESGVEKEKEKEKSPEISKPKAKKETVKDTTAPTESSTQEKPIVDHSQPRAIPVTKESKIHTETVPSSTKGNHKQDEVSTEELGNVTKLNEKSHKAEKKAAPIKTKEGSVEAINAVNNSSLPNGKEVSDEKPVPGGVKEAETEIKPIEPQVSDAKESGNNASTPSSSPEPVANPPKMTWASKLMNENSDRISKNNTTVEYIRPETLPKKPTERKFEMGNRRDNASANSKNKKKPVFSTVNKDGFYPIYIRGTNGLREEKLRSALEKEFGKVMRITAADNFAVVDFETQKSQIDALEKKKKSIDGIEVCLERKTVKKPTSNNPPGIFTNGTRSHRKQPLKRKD
B2: UBP3-associated protein BRE5 (Saccharomyces cerevisiae), P53741 (parent)
chain: B1 partner
partner: B1 chain

Variants of: B1
Conditions: with bre5_yeast BRE5, P53741

Variant | effect of a mutation on the interaction
L208A | with no effect
L208A;F209A | decreasing interaction strength
L208A;F209A;I210A;N211A | decreasing interaction strength
L208A;F209A;I210A;N211A;F217A | disrupting interaction strength
F209A | with no effect
I210A | decreasing interaction strength
I210A;F217A | decreasing interaction strength
N211A | decreasing interaction strength
N211A;F217A | decreasing interaction strength
T212A | with no effect
E214A | with no effect
E216A | with no effect
F217A | with no effect
R224A | with no effect

Variants of: B2
Conditions: with ubp3_yeast UBP3, Q01477

Variant | effect of a mutation on the interaction
MGVTVQDICFAFLQNYAERMRTDPSKLAYFYASTAELTHTNYQSKSTNEKDDVLPTVKVTGRENINKFFSRNDAKVRSLKLKLDTIDFQYTGHLHKSILIMATGEMFWTGTPVYKFCQTFILLPSSNGSTFDITNDIIRFISNSFKPYVLTDASLSQSNEENSVSAVEEDKIRHESGVEKEKEKEKSPEISKPKAKKETVKDTTAPTESSTQEKPIVDHSQPRAIPVTKESKIHTETVPSSTKGNHKQDEVSTEELGNVTKLNEKSHKAEKKAAPIKTKEGSVEAINAVNNSSLPNGKEVSDEKPVPGGVKEAETEIKPIEPQVSDAKESGNNASTPSSSPEPVANPPKMTWASKLMNENSDRISKNNTTVEYIRPETLPKKPTERKFEMGNRRDNASANSKNKKKPVFSTVNKDGFYPIYIRGTNGLREEKLRSALEKEFGKVMRITAADNFAVVDFETQKSQIDALEKKKKSIDGIEVCLERKTVKKPTSNNPPGIFTNGTRSHRKQPLKRKD [Y17A] | with no effect
MGVTVQDICFAFLQNYYERMRTDPSKLAYFYASTAELTHTNYQSKSTNEKDDVLPTVKVTGRENINKFFSRNDAKVRSLALKLDTIDFQYTGHLHKSILIMATGEMFWTGTPVYKFCQTFILLPSSNGSTFDITNDIIRFISNSFKPYVLTDASLSQSNEENSVSAVEEDKIRHESGVEKEKEKEKSPEISKPKAKKETVKDTTAPTESSTQEKPIVDHSQPRAIPVTKESKIHTETVPSSTKGNHKQDEVSTEELGNVTKLNEKSHKAEKKAAPIKTKEGSVEAINAVNNSSLPNGKEVSDEKPVPGGVKEAETEIKPIEPQVSDAKESGNNASTPSSSPEPVANPPKMTWASKLMNENSDRISKNNTTVEYIRPETLPKKPTERKFEMGNRRDNASANSKNKKKPVFSTVNKDGFYPIYIRGTNGLREEKLRSALEKEFGKVMRITAADNFAVVDFETQKSQIDALEKKKKSIDGIEVCLERKTVKKPTSNNPPGIFTNGTRSHRKQPLKRKD [K80A] | with no effect
MGVTVQDICFAFLQNYYERMRTDPSKLAYFYASTAELTHTNYQSKSTNEKDDVLPTVKVTGRENINKFFSRNDAKVRSLKLALDTIDFQYTGHLHKSILIMATGEMFWTGTPVYKFCQTFILLPSSNGSTFDITNDIIRFISNSFKPYVLTDASLSQSNEENSVSAVEEDKIRHESGVEKEKEKEKSPEISKPKAKKETVKDTTAPTESSTQEKPIVDHSQPRAIPVTKESKIHTETVPSSTKGNHKQDEVSTEELGNVTKLNEKSHKAEKKAAPIKTKEGSVEAINAVNNSSLPNGKEVSDEKPVPGGVKEAETEIKPIEPQVSDAKESGNNASTPSSSPEPVANPPKMTWASKLMNENSDRISKNNTTVEYIRPETLPKKPTERKFEMGNRRDNASANSKNKKKPVFSTVNKDGFYPIYIRGTNGLREEKLRSALEKEFGKVMRITAADNFAVVDFETQKSQIDALEKKKKSIDGIEVCLERKTVKKPTSNNPPGIFTNGTRSHRKQPLKRKD [K82A] | with no effect
MGVTVQDICFAFLQNYYERMRTDPSKLAYFYASTAELTHTNYQSKSTNEKDDVLPTVKVTGRENINKFFSRNDAKVRSLKLKLDTIDFQYTGHLHKSILIMATGAMFWTGTPVYKFCQTFILLPSSNGSTFDITNDIIRFISNSFKPYVLTDASLSQSNEENSVSAVEEDKIRHESGVEKEKEKEKSPEISKPKAKKETVKDTTAPTESSTQEKPIVDHSQPRAIPVTKESKIHTETVPSSTKGNHKQDEVSTEELGNVTKLNEKSHKAEKKAAPIKTKEGSVEAINAVNNSSLPNGKEVSDEKPVPGGVKEAETEIKPIEPQVSDAKESGNNASTPSSSPEPVANPPKMTWASKLMNENSDRISKNNTTVEYIRPETLPKKPTERKFEMGNRRDNASANSKNKKKPVFSTVNKDGFYPIYIRGTNGLREEKLRSALEKEFGKVMRITAADNFAVVDFETQKSQIDALEKKKKSIDGIEVCLERKTVKKPTSNNPPGIFTNGTRSHRKQPLKRKD [E105A] | with no effect

Variants of: B2
Conditions: with ubp3_yeast UBP3, Q01477
Remark: another data set of the same source

Variant | effect of a mutation on the interaction
MGVTVQDICFAFLQNYAERMRTDPSKLAYFYASTAELTHTNYQSKSTNEKDDVLPTVKVTGRENINKFFSRNDAKVRSLKLALDTIDFQYTGHLHKSILIMATGEMFWTGTPVYKFCQTFILLPSSNGSTFDITNDIIRFISNSFKPYVLTDASLSQSNEENSVSAVEEDKIRHESGVEKEKEKEKSPEISKPKAKKETVKDTTAPTESSTQEKPIVDHSQPRAIPVTKESKIHTETVPSSTKGNHKQDEVSTEELGNVTKLNEKSHKAEKKAAPIKTKEGSVEAINAVNNSSLPNGKEVSDEKPVPGGVKEAETEIKPIEPQVSDAKESGNNASTPSSSPEPVANPPKMTWASKLMNENSDRISKNNTTVEYIRPETLPKKPTERKFEMGNRRDNASANSKNKKKPVFSTVNKDGFYPIYIRGTNGLREEKLRSALEKEFGKVMRITAADNFAVVDFETQKSQIDALEKKKKSIDGIEVCLERKTVKKPTSNNPPGIFTNGTRSHRKQPLKRKD [Y17A;K82A] | decreasing interaction strength
